According to patent US20140072613A1, “Compositions and Methods for Treating Cutaneous Scarring” (priority 2012, published 2014):

Columns and labels:
Test in all cases: biochemical
Format in all cases: biochemical
266 human kinases [1] = biological target: 266 human kinases (Homo sapiens, UniProt P16591); conditions: Fer(h); 100 μM
How it was run: (§1)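 A filter-capture radiometric assay: phosphorylated cationic substrate binds an anionic membrane and is scintillation-counted, with values referenced to full-activity control.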

266 human kinases [2] = biological target: 266 human kinases (Homo sapiens, UniProt Q02763); conditions: Tie2(h); 100 μM
How it was run: as §1

266 human kinases [3] = biological target: 266 human kinases (Homo sapiens, UniProt Q13043); conditions: MST1(h); 100 μM
Chain of 266 human kinases (Homo sapiens, UniProt Q13043) (Q13043 whole entry): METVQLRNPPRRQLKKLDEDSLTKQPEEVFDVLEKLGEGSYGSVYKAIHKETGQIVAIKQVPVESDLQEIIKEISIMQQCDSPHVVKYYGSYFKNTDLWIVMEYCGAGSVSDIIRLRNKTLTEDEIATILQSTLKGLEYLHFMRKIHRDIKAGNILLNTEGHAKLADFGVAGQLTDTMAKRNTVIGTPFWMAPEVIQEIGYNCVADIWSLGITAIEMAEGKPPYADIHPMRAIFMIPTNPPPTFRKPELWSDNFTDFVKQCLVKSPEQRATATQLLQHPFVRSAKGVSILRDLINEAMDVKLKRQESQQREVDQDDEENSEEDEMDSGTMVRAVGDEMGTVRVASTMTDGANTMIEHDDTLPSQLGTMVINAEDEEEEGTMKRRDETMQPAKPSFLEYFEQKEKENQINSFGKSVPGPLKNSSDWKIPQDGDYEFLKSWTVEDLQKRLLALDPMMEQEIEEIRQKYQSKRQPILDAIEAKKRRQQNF
How it was run: as §1

266 human kinases [4] = biological target: 266 human kinases (Homo sapiens, UniProt P53778); conditions: SAPK3(h); 100 μM
Chain of 266 human kinases (Homo sapiens, UniProt P53778) (P53778 whole entry): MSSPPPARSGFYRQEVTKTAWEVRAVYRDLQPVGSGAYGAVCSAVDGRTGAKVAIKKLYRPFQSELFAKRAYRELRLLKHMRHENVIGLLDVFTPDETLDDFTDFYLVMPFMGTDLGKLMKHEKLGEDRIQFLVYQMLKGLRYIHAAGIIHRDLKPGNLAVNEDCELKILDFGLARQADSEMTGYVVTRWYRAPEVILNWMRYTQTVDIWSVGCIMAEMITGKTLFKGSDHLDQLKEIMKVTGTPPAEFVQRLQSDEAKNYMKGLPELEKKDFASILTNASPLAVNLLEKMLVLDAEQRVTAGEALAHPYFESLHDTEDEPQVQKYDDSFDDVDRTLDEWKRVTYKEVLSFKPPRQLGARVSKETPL
How it was run: as §1

266 human kinases [5] = biological target: 266 human kinases (Homo sapiens, UniProt Q86UE8); conditions: TLK2(h); 100 μM
Chain of 266 human kinases (Homo sapiens, UniProt Q86UE8) (Q86UE8 whole entry): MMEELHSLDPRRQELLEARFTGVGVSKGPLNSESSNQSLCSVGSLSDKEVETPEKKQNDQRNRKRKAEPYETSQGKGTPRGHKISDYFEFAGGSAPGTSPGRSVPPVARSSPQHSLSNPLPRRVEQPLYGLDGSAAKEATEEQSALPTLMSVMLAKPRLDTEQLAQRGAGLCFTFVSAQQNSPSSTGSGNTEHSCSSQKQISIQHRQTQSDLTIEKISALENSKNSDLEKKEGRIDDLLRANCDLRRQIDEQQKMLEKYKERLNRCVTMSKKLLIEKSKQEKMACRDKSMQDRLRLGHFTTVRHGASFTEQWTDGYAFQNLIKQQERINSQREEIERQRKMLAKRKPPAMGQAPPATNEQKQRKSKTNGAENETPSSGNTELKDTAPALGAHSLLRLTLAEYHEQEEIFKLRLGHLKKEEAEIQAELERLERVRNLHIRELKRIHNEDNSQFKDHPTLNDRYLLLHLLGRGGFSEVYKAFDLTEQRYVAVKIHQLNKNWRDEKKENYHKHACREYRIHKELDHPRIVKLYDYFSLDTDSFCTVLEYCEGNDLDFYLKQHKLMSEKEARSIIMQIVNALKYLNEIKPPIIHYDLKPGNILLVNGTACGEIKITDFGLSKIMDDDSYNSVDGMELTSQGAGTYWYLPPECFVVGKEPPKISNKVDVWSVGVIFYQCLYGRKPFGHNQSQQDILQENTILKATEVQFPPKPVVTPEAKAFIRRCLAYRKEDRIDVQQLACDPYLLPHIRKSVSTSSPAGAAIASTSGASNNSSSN
How it was run: as §1

266 human kinases [6] = biological target: 266 human kinases (Homo sapiens, UniProt Q06187); conditions: BTK(h); 100 μM
Chain of 266 human kinases (Homo sapiens, UniProt Q06187) (Q06187 whole entry): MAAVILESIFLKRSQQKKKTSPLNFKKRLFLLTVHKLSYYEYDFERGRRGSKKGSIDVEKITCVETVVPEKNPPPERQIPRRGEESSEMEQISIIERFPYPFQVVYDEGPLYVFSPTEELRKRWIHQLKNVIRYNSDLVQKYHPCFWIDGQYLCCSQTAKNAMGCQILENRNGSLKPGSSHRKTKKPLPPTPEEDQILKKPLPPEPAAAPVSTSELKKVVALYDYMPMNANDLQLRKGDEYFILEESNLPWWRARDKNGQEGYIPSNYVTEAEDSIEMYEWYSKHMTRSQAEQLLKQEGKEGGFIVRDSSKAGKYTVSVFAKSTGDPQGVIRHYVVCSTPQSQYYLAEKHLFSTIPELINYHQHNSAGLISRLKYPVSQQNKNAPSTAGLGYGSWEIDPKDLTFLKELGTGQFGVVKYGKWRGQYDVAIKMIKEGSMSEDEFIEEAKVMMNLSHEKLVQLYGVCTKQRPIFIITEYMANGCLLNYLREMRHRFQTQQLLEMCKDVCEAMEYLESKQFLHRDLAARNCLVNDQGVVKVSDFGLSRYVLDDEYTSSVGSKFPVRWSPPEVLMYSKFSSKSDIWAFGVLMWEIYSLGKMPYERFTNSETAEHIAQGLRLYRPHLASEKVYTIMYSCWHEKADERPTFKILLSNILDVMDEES
How it was run: as §1

266 human kinases [7] = biological target: 266 human kinases (Homo sapiens, UniProt P54756); conditions: EphA5(h); 100 μM
Chain of 266 human kinases (Homo sapiens, UniProt P54756) (P54756 25-1037): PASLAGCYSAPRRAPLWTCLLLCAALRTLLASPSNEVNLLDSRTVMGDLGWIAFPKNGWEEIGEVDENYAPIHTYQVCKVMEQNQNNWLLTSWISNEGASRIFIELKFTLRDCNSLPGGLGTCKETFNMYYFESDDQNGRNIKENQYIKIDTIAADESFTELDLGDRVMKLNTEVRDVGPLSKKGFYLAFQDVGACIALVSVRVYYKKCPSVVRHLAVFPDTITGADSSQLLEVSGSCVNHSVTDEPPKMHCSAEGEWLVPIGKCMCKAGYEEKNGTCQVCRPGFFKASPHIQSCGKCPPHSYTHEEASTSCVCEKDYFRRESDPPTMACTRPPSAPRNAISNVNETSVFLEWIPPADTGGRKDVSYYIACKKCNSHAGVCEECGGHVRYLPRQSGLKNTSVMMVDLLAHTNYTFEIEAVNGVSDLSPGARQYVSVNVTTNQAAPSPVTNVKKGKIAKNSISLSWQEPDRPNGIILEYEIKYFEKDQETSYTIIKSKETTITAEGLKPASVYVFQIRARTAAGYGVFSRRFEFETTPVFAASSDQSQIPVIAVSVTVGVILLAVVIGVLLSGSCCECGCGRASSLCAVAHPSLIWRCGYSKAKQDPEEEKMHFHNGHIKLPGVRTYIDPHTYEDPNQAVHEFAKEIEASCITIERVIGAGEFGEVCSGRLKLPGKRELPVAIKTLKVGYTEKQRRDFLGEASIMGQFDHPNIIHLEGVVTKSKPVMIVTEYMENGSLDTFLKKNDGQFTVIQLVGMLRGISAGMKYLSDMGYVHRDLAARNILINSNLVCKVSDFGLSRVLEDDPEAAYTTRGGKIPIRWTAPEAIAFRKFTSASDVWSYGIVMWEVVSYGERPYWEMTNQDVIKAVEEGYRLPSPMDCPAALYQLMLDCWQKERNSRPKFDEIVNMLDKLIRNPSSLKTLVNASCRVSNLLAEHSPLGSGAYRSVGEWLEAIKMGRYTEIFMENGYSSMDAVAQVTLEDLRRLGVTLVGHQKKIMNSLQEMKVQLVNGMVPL
How it was run: as §1

266 human kinases [8] = biological target: 266 human kinases (Homo sapiens, UniProt Q9HC98); conditions: NEK6(h); 100 μM
Chain of 266 human kinases (Homo sapiens, UniProt Q9HC98) (Q9HC98 whole entry): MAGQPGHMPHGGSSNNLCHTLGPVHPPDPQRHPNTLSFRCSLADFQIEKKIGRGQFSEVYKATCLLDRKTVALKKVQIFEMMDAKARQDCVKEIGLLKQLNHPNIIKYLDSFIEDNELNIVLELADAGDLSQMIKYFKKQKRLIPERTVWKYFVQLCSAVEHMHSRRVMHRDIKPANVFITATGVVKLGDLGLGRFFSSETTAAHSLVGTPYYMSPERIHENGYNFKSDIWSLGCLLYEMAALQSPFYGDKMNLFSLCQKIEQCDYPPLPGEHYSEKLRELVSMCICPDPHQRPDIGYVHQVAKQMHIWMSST
How it was run: as §1

266 human kinases [9] = biological target: 266 human kinases (Homo sapiens, UniProt P68400); conditions: CK2(h); 100 μM
Chain of 266 human kinases (Homo sapiens, UniProt P68400) (P68400 whole entry): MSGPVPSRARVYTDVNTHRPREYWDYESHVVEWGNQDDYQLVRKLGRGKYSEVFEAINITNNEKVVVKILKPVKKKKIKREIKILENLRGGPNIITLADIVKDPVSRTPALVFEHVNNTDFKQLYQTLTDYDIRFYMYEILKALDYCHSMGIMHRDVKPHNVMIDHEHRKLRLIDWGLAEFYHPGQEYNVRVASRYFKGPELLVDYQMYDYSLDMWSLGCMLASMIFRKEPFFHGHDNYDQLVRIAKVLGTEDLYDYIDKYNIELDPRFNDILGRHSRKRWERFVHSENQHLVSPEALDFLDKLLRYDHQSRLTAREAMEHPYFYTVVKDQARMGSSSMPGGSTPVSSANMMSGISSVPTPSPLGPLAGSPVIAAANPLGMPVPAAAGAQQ
How it was run: as §1

266 human kinases [10] = biological target: T1, 266 human kinases (Homo sapiens, UniProt Q12866); conditions: Mer(h); 100 μM
T1 sequence (Q12866 21-999): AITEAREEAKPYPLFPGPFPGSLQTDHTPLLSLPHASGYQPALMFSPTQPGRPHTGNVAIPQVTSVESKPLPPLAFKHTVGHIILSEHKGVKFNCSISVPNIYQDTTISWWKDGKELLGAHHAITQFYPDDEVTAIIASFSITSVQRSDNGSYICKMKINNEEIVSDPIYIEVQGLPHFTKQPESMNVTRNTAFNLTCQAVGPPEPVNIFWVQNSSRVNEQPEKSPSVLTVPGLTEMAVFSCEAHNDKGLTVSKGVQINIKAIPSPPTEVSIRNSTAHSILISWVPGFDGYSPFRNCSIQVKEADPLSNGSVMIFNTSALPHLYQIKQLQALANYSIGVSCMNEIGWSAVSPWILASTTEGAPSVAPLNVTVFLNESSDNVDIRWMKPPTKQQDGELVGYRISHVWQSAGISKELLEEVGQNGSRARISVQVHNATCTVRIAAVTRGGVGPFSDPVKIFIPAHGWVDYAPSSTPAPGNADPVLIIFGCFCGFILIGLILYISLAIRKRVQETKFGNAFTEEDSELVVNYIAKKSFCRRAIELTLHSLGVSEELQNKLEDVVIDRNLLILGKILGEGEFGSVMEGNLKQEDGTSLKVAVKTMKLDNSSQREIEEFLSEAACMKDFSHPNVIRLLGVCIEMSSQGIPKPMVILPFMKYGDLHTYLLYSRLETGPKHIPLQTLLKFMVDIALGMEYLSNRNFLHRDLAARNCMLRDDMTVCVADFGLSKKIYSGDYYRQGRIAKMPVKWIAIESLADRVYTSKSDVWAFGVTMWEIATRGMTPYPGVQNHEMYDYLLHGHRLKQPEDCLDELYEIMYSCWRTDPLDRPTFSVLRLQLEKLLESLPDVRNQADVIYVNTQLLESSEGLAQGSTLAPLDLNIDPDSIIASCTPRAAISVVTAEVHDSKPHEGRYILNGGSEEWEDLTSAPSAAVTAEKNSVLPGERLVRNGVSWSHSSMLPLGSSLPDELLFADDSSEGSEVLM
How it was run: as §1

266 human kinases [11] = biological target: 266 human kinases (Homo sapiens, UniProt P08581, M1250T); conditions: Met(M1268T)(h); 100 μM
How it was run: as §1

266 human kinases [12] = biological target: 266 human kinases (Homo sapiens, UniProt P07949, V804L); conditions: Ret(V804L)(h); 100 μM
How it was run: as §1

266 human kinases [13] = biological target: 266 human kinases (Homo sapiens, UniProt P10721); conditions: cKit(h); 100 μM
How it was run: as §1

266 human kinases [14] = biological target: 266 human kinases (Homo sapiens, UniProt P11362); conditions: FGFR1(h); 100 μM
Chain of 266 human kinases (Homo sapiens, UniProt P11362) (P11362 22-822): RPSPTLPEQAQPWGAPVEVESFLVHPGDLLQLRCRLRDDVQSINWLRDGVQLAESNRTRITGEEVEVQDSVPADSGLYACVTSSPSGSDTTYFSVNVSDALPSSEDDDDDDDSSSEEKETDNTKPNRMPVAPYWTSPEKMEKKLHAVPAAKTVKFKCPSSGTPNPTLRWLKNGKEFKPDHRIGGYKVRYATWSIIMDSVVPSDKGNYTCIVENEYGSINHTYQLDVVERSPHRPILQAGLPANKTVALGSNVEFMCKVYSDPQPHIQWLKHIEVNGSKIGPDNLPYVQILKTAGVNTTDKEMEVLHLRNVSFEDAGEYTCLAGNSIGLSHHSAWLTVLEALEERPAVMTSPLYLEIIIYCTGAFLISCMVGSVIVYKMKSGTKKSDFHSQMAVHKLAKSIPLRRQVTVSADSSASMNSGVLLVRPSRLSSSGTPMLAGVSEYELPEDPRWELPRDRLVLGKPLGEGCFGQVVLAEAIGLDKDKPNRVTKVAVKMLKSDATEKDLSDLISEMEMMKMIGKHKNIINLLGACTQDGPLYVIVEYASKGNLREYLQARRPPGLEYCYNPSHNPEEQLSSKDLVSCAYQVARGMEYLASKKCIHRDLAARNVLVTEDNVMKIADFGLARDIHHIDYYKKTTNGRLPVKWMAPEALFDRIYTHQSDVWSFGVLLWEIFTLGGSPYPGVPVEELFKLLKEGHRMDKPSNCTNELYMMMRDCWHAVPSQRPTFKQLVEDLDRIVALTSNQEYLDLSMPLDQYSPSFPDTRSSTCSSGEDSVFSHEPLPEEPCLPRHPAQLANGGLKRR
How it was run: as §1

266 human kinases [15] = biological target: 266 human kinases (Homo sapiens, UniProt P06241); conditions: Fyn(h); 100 μM
How it was run: as §1

266 human kinases [16] = biological target: 266 human kinases (Homo sapiens, UniProt P17252); conditions: PKCα(h); 100 μM
How it was run: as §1

266 human kinases [17] = biological target: 266 human kinases (Homo sapiens, UniProt O60674); conditions: JAK2(h); 100 μM
How it was run: as §1

266 human kinases [18] = biological target: T2, 266 human kinases (Homo sapiens, UniProt Q9NWZ3); conditions: IRAK4(h); 100 μM
T2 sequence (Q9NWZ3 1-460): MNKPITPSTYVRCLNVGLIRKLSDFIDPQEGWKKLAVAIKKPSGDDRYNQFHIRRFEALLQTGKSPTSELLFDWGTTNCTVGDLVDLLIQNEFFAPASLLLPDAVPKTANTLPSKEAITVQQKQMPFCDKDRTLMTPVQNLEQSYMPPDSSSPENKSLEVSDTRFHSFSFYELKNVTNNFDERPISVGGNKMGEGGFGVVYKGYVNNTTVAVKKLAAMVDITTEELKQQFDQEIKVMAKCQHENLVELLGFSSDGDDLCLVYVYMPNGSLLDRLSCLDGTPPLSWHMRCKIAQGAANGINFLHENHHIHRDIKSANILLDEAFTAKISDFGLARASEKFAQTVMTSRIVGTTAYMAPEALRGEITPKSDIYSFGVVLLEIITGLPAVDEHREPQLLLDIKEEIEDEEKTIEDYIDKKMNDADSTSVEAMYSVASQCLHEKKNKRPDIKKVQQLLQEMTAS
How it was run: as §1

**Q.** For “HRRIKAWLKKIKALARQLGVAA (mammal) [MMI-0500]”, which “% activity” value (266 human kinases [1]) is on record?
**A.** 196%

**Q.** What about the “% activity” value (266 human kinases [2]) of the same sequence?
**A.** 22%

**Q.** And the “% activity” value (266 human kinases [3])?
**A.** 3%

**Q.** What about the “% activity” value (266 human kinases [4]) of the same sequence?
**A.** 24%

**Q.** And the “% activity” value (266 human kinases [5])?
**A.** 133%

**Q.** What about the “% activity” value (266 human kinases [6]) of the same sequence?
**A.** 18%

**Q.** And the “% activity” value (266 human kinases [7])?
**A.** 42%

**Q.** What about the “% activity” value (266 human kinases [8]) of the same sequence?
**A.** 49%

**Q.** And the “% activity” value (266 human kinases [9])?
**A.** 93%

**Q.** And the “% activity” value (266 human kinases [10])?
**A.** 17%

**Q.** And the “% activity” value (266 human kinases [11])?
**A.** 239%

**Q.** What about the “% activity” value (266 human kinases [12]) of the same sequence?
**A.** 20%

**Q.** And the “% activity” value (266 human kinases [13])?
**A.** 45%

**Q.** And the “% activity” value (266 human kinases [14])?
**A.** 18%

**Q.** And the “% activity” value (266 human kinases [15])?
**A.** 83%

**Q.** What about the “% activity” value (266 human kinases [16]) of the same sequence?
**A.** 3%

**Q.** And the “% activity” value (266 human kinases [17])?
**A.** 49%

**Q.** And the “% activity” value (266 human kinases [18])?
**A.** 3%

**Q.** Which results are given for “YARAAARQARAKALNRQLGVA (mammal) [MMI-0200]”?
**A.** % activity (266 human kinases [1]): 101%; % activity (266 human kinases [2]): 53%; % activity (266 human kinases [3]): 72%; % activity (266 human kinases [4]): 97%; % activity (266 human kinases [5]): 129%; % activity (266 human kinases [6]): 100%; % activity (266 human kinases [7]): 123%; % activity (266 human kinases [8]): 98%; % activity (266 human kinases [9]): 83%; % activity (266 human kinases [10]): 90%; % activity (266 human kinases [11]): 143%; % activity (266 human kinases [12]): 100%; % activity (266 human kinases [13]): 110%; % activity (266 human kinases [14]): 97%; % activity (266 human kinases [15]): 75%; % activity (266 human kinases [16]): 100%; % activity (266 human kinases [17]): 131%; % activity (266 human kinases [18]): 110%
